These results are taken from patent publication US7732568B2, “Methods for preventing and treating Alzheimer's disease” (AFFIRIS Forschungs-und Entwicklungs GmbH, priority 2003, dated 2010).

Experiment [1] relates to biotinylated DAEFRH-specific mAb. In words: ELISA with peptide libraries: detection of mimotopes by the DAEFRH-specific mAb. The format is binding, mice. The settings on record: mimotopes from peptide libraries 1, 2 and 3. As for the experimental part:
The ELISA with each of the peptide libraries have been carried out following standard protocols:
The peptide library is dissolved in 100% DMSO (final concentration 10 mg/ml).
The peptide solution is further diluted in PBS.
The peptide mixture is coated overnight (4° C.) onto ELISA plates (Nunc Maxisorp, Germany), starting with 500 μg/well, and titrated to 100 ng/well.
The plates are washed 3× times with PBS/Tween 20 (0.1% v/v).
The plates are blocked with PBS/BSA (2 h at room temperature).
The plates are washed 3× times with PBS/Tween.
The plates are incubated with biotinylated DAEFRH-specific mAb (DAEFRH sequence disclosed as SEQ ID NO: 1) (10 μg/ml in PBS) for 4 h at room temperature.
The plates are incubated with streptavidin-horseradish-peroxidase (30 min at room temperature).
The plates are washed 5× times with PBS/Tween.
The plates are incubated with ABTS+H2O2 (0.1% w/v; 10 to 45 min) and the reaction is stopped with citric acid followed by photometric evaluation (wavelength 405 nm).

For experiment [2], the target named is DAEFRH-specific monoclonal antibody (mAb) produced according to example 1. In words: competition ELISA: soluble peptide vs plate-bound DAEFRH-C-BSA for biotinylated mAb, FIG. 5.
Experiment [3] has the same target. The experiment in a line: competition ELISA: soluble peptide vs plate-bound DAEFRH-C-BSA for biotinylated mAb, FIG. 2.
The target is the same in experiment [4]. The experiment in a line: competition ELISA: soluble peptide vs plate-bound DAEFRH-C-BSA for biotinylated mAb, FIG. 4.
Experiment [5] has the same target. In words: competition ELISA: soluble peptide vs plate-bound DAEFRH-C-BSA for biotinylated mAb, FIG. 3. A general note: In an ELISA, binding on a coated surface is turned into a signal by an enzyme label.

A value given as a limit tells only on which side of the number the result lay.

Regarding EVDYHR, the “detection by the monoclonal antibody produced according to example 1” value in experiment [1] is “can be detected”.

Take DKELKIC [Peptide 1236 DKELKI]: the IC50 in experiment [2] was greater than 5 µg/mL.

Regarding YAEFRGC [Peptide 3005 YAEFRG], in experiment [3], the IC50 is greater than 0.5 µg/mL.

DRELRIC [Peptide 1235 DRELRI] yielded an IC50 in experiment [2] of less than 0.5 µg/mL.

Regarding DKELRC [Peptide 1238 DKELR], in experiment [2], the 50% inhibitory concentration (IC50) is less than 0.5 µg/mL.

The molecule EYEFRGC [Peptide 1239 EYEFRG] displayed an IC50 in experiment [2] greater than 0.5 µg/mL.

SWEFRTC [Peptide 4002 SWEFRT] came in with an IC50 in experiment [4] of less than 0.4 µg/mL.

As to DWEFRDAC [Peptide 1241 DWEFRDA], the IC50 in experiment [2] was less than 0.5 µg/mL.

In experiment [3], DKELRIC [Peptide 3001 DKELRI] gave an IC50 of less than 0.5 µg/mL.

The molecule ELEFRGC [Peptide 3008 ELEFRG] came in with an IC50 in experiment [5] of less than 5 µg/mL.

In turn, DRELKIC [Peptide 1237 DRELKI] showed a 50% inhibitory concentration (IC50) in experiment [2] greater than 5 µg/mL.

SFEFRGC [Peptide 3009 SFEFRG] returned an IC50 in experiment [5] of less than 5 µg/mL.

Molecule EAEFRGC [Peptide 3006 EAEFRG] returned a concentration for half-maximal inhibition (IC50) in experiment [3] of less than 0.5 µg/mL.

DWELRIC [Peptide 3002 DWELRI]: in experiment [3], the 50% inhibitory concentration (IC50) is greater than 0.5 µg/mL.

The term IC50 denotes the concentration that gives 50% inhibition. Higher therefore signals weaker potency.
